Source: US20200339702A1 (ULTRAHUMAN THIRTEEN, published 2020)
Substitutions are numbered along the chain they refer to.

T1: rhesus monkey ERBB3 human Fc tagged recombinant protein (rhesus monkey (Macaca mulatta), UniProt P21860 20-643 (human entry), limits assumed)
T1 construct: also called rhesus ERBB3-Fc; rhERBB3
T1 chain: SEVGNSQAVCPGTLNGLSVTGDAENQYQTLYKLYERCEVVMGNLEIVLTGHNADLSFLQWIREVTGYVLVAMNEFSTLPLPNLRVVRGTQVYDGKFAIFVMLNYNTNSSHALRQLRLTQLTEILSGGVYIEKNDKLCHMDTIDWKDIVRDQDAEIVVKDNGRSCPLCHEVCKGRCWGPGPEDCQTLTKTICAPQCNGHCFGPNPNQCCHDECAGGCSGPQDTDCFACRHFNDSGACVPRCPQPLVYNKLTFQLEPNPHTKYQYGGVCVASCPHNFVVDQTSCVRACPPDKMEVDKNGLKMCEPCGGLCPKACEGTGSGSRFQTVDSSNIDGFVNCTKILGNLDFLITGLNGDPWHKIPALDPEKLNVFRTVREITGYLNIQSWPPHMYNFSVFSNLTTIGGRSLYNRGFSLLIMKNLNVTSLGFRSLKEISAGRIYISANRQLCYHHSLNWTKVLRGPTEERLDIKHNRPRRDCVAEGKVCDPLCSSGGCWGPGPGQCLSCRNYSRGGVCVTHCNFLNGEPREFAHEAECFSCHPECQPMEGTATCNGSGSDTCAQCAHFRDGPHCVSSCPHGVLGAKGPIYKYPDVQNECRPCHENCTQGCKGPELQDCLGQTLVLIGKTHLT

T2: rhesus ERBB3 on transiently transfected HEK-293 cells (rhesus monkey (Macaca mulatta), UniProt P21860 20-1342 (human entry))
T2 construct: also called rhesus ERBB3+ HEK-293 cells
T2 chain: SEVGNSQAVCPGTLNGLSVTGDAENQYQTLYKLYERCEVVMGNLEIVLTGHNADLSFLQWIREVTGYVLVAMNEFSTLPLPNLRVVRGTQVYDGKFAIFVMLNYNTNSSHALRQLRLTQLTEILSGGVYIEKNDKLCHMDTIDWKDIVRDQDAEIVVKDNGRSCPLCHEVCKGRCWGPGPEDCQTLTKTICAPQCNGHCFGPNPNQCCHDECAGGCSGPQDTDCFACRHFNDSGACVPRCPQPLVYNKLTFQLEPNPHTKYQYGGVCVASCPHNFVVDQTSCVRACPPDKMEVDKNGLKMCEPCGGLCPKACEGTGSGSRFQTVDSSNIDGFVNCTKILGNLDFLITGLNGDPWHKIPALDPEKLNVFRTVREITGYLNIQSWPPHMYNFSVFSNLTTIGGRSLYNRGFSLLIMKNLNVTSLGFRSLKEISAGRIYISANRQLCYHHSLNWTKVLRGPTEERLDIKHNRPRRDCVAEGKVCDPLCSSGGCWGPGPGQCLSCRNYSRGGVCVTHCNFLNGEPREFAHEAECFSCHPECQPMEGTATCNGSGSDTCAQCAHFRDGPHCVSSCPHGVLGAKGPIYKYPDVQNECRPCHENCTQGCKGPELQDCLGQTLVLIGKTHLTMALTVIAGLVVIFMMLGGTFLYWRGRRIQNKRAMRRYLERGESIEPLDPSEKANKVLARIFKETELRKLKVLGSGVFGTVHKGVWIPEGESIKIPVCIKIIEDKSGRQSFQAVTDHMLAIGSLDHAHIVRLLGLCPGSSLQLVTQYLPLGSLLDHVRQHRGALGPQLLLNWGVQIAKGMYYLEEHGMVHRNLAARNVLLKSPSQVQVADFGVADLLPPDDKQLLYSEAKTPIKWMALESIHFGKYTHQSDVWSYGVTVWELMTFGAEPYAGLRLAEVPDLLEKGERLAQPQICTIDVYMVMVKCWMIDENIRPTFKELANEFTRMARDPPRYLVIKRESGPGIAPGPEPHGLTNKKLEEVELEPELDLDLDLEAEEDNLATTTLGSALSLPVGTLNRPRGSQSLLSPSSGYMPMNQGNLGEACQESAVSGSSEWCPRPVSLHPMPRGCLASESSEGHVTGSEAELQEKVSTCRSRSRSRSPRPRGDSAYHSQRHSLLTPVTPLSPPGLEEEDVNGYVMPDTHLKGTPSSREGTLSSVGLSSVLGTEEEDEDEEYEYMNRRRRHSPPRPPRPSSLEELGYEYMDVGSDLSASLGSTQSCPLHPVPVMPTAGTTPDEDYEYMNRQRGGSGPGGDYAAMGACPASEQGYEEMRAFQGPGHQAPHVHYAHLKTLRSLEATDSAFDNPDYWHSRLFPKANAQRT

B1: 15G11-DI1 IgG1 (antibody, V domains shown)
VH: QVQLVESGGGLVKPGGSLRLSCAASGFTFSDYGMSWVRQAPGKGLEWVSTISDSGSYTYYPDSVKGRFTISRDNAKNSLYLQMNSLRAEDTAVYYCARELGDYDGFDYWGQGTLVTVSS
VL: DIQMTQSPSSLSASVGDRVTITCRASQEISSYLSWYQQKPGKAPKLLIYAASSLDTGVPSRFSGSGSGTDFTLTISSLQPEDFATYYCLQYDSTPYTFGGGTKVEIK
notes: Human IgG1 format, human Ckappa
B2: 15G11-DI7 IgG1 (antibody, V domains shown)
VH: B1 VH with G33S, V37I, S56T, L100W, Y108F
VL: B1 VL with T94S
notes: Human IgG1 format, human Ckappa; also called 15G11-D17
B3: 15G11-DI8 IgG1 (antibody, V domains shown)
VH: B1 VH with G33S, V37I, S56T, L100W, Y108F
VL: B1 VL with S31T, T94S
notes: as for B1
B4: 15G11-DI4 IgG1 (antibody, V domains shown)
VH: B1 VH
VL: B1 VL with S31T, T94S
notes: as for B1
B5: 15G11-DI9 IgG1 (antibody, V domains shown)
VH: B1 VH with G33S, V37I, S56T, L100W, Y108F
VL: B1 VL with S31T, S53T, D55Q, T56S, T94S, Y96L
notes: as for B1
B6: 15G11-DI3 IgG1 (antibody, V domains shown)
VH: B1 VH
VL: B1 VL with T94S
notes: as for B1
B7: 15G11-DI10 IgG1 (antibody, V domains shown)
VH: B1 VH
VL: B1 VL with I48A, T56S
notes: as for B1
B8: 15G11-DI2 IgG1 (antibody, V domains shown)
VH: B1 VH
VL: B1 VL with S31T
notes: as for B1
B9: 15G11-DI6 IgG1 (antibody, V domains shown)
VH: B1 VH with G33S, V37I, S56T, L100W, Y108F
VL: B1 VL with S31T
notes: as for B1
B10: 15G11-DI5 IgG1 (antibody, V domains shown)
VH: B1 VH with G33S, V37I, S56T, L100W, Y108F
VL: B1 VL
notes: as for B1

Key:
[1] = biological target: T3, human ERBB3 His tagged, monomeric (human, UniProt P21860 20-643, biotinylated in the Alphascreen assays (sites not given)); experiment: Alphascreen competition in solution, competitor h24C05 IgG1, biotinylated human ERBB3-His
T3 construct: Used unbiotinylated as Biacore analyte and biotinylated in Alphascreen; treated as one molecule; also called human ERBB3-His (Acrobiosystems); biotinylated monomeric human ERBB3

[2] = biological target: T4, human insulin (human, UniProt P01308 25-54; P01308 90-110, limits assumed); experiment: development risk ELISA on insulin
T4 construct: Off-target protein in the development risk (polyreactivity) ELISA

[3] = biological target: T1, rhesus monkey ERBB3 human Fc tagged …; experiment: direct binding ELISA on coated rhesus ERBB3-Fc, IgG1 titrated
Method: (§1) Binding and cross-reactivity of the lead panel to the recombinant proteins was initially assessed by binding ELISA. The human ERBB3 human Fc tagged recombinant protein and the rhesus monkey ERBB3 human Fc tagged recombinant protein were coated to the surface of MaxiSorp™ flat-bottom 96 well plate at 1 μg/ml. The purified IgG samples were titrated in two fold serial dilutions starting from 500 nM to 0.008 nM and allowed to bind to the coated antigens. The Fabs were detected using mouse anti-c-myc antibody followed by donkey anti-mouse IgG conjugated to horseradish peroxidase. The IgGs were detected using the mouse anti-human IgG conjugated to horseradish peroxidase. Binding signals were visualized with 3,3′,5,5′-Tetramethylbenzidine Substrate Solution (TMB) and the absorbance measured at 450 nm.

[4] = biological target: T2, rhesus ERBB3 on transiently transfected …; experiment: flow cytometry, rhesus ERBB3-transfected HEK-293 cells, IgG1 titrated
Method: (§2) Purified IgGs were tested in FACs for binding to human and rhesus monkey ERBB3 expressed on transiently transfected HEK-293 cells and HEK-293 wild-type cells. The IgG samples were titrated in three-fold serial dilutions starting at 500 nM to 0.008 nM. Binding of IgGs was detected with a mouse anti-human IgG conjugated to FITC. Results were analyzed by examining the Mean Fluorescence Intensity (MFI) of 10000 cells per sample in the BL-1 channel detector of a flow cytometer (Attune™ NxT Acoustic Focusing Cytometer, Invitrogen/ThermoFisher Scientific).

[5] = biological target: T5, human ERBB3 on transiently transfected HEK-293 cells (human, UniProt P21860 20-1342); experiment: flow cytometry, human ERBB3-transfected HEK-293 cells, IgG1 titrated
T5 construct: also called human ERBB3+ HEK-293 cells
Method: as §2

[6] = biological target: T6, human ERBB3 human Fc tagged recombinant protein (human, UniProt P21860 20-643); experiment: direct binding ELISA on coated human ERBB3-Fc, IgG1 titrated
T6 construct: also called human ERBB3-Fc; huERBB3
Method: as §1

T4 sequence (P01308 25-54 limits assumed, chain 1 of 2): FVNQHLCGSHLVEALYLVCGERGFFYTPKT
T4 sequence (P01308 90-110 limits assumed, chain 2 of 2): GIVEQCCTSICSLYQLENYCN

Binder	IC50 (read off the curve) [1] [nM]	binding score [2]	binding result [3]	binding result [4]	binding result [5]	binding result [1]	binding result [6]	EC50 (read off the curve) [5] [nM]	EC50 (read off the curve) [4] [nM]	EC50 (read off the curve) [3] [nM]	EC50 (read off the curve) [6] [nM]
B1	~0.5	< 10	binds	binds							
B2		< 10	binds	binds	binds	binds	binds				
B3		< 10	binds	binds	binds	binds	binds				
B4		< 10	binds	binds	binds	binds	binds				
B5		< 10	binds	binds	binds	binds	binds				
B6		< 10	binds	binds	binds	binds	binds				
B7			binds	binds	binds	binds	binds				
B8		< 10	binds	binds	binds	binds	binds				
B9		< 10	binds					~1	~0.3		
B10		< 10		binds						~0.2	~0.2
